# Test results reported in the Human Domainome abundance scans (Beltran et al. 2025).
# ± gives the uncertainty stated by the source.
# B1: Zinc finger homeobox protein 3, residues 2643 to 2698; numbered along this chain, Q15911 (parent)
# chain: RLRTTITPEQLEILYQKYLLDSNPTRKMLDHIAHEVGLKKRVVQVWFQNTRARERK
# Variants of: B1
# Assay: abundance fitness (aPCA) (normalised: wild type 0, dead -1); higher = more abundant; growth selection in yeast, the domain comes from the species named
# Conditions: Homo sapiens
row,Variant,abundance fitness
1,RLRTTITPEQLEILYQKYLLDSNPTRKMLDHIAHEVWLKKRVVQVWFQNTRARERK [G37W],-0.92 ± 0.11
2,RLRTTITPEQLEILYQKYLLDSNPTRKMLDHIAHEVYLKKRVVQVWFQNTRARERK [G37Y],-0.919 ± 0.16
3,RLRTTITPEQLEILYQKYLLDSNPTRKMLDHIAHEVGCKKRVVQVWFQNTRARERK [L38C],-0.329 ± 0.14
4,RLRTTITPEQLEILYQKYLLDSNPTRKMLDHIAHEVGEKKRVVQVWFQNTRARERK [L38E],-0.869 ± 0.12
5,RLRTTITPEQLEILYQKYLLDSNPTRKMLDHIAHEVGFKKRVVQVWFQNTRARERK [L38F],-0.819 ± 0.22
6,RLRTTITPEQLEILYQKYLLDSNPTRKMLDHIAHEVGGKKRVVQVWFQNTRARERK [L38G],-0.972 ± 0.092
7,RLRTTITPEQLEILYQKYLLDSNPTRKMLDHIAHEVGHKKRVVQVWFQNTRARERK [L38H],-0.737 ± 0.19
8,RLRTTITPEQLEILYQKYLLDSNPTRKMLDHIAHEVGIKKRVVQVWFQNTRARERK [L38I],-0.786 ± 0.23
9,RLRTTITPEQLEILYQKYLLDSNPTRKMLDHIAHEVGKKKRVVQVWFQNTRARERK [L38K],-0.712 ± 0.17
10,RLRTTITPEQLEILYQKYLLDSNPTRKMLDHIAHEVGMKKRVVQVWFQNTRARERK [L38M],-0.009 ± 0.13
11,RLRTTITPEQLEILYQKYLLDSNPTRKMLDHIAHEVGNKKRVVQVWFQNTRARERK [L38N],-1.02 ± 0.24
12,RLRTTITPEQLEILYQKYLLDSNPTRKMLDHIAHEVGQKKRVVQVWFQNTRARERK [L38Q],-0.734 ± 0.16
13,RLRTTITPEQLEILYQKYLLDSNPTRKMLDHIAHEVGRKKRVVQVWFQNTRARERK [L38R],-0.846 ± 0.086
14,RLRTTITPEQLEILYQKYLLDSNPTRKMLDHIAHEVGSKKRVVQVWFQNTRARERK [L38S],-0.601 ± 0.099
15,RLRTTITPEQLEILYQKYLLDSNPTRKMLDHIAHEVGTKKRVVQVWFQNTRARERK [L38T],-0.616 ± 0.13
16,RLRTTITPEQLEILYQKYLLDSNPTRKMLDHIAHEVGVKKRVVQVWFQNTRARERK [L38V],-0.163 ± 0.078
17,RLRTTITPEQLEILYQKYLLDSNPTRKMLDHIAHEVGWKKRVVQVWFQNTRARERK [L38W],-0.746 ± 0.11
18,RLRTTITPEQLEILYQKYLLDSNPTRKMLDHIAHEVGYKKRVVQVWFQNTRARERK [L38Y],-1 ± 0.41
19,RLRTTITPEQLEILYQKYLLDSNPTRKMLDHIAHEVGLAKRVVQVWFQNTRARERK [K39A],0.236 ± 0.087
20,RLRTTITPEQLEILYQKYLLDSNPTRKMLDHIAHEVGLCKRVVQVWFQNTRARERK [K39C],0.184 ± 0.12
21,RLRTTITPEQLEILYQKYLLDSNPTRKMLDHIAHEVGLDKRVVQVWFQNTRARERK [K39D],0.189 ± 0.13
22,RLRTTITPEQLEILYQKYLLDSNPTRKMLDHIAHEVGLEKRVVQVWFQNTRARERK [K39E],0.518 ± 0.13
23,RLRTTITPEQLEILYQKYLLDSNPTRKMLDHIAHEVGLFKRVVQVWFQNTRARERK [K39F],-0.929 ± 0.28
24,RLRTTITPEQLEILYQKYLLDSNPTRKMLDHIAHEVGLGKRVVQVWFQNTRARERK [K39G],0.178 ± 0.072

row,Variant,abundance fitness
1,RLRTTITPEQLEILYQKYLLDSNPTRKMLDHIAHEVGLHKRVVQVWFQNTRARERK [K39H],-0.392 ± 0.18
2,RLRTTITPEQLEILYQKYLLDSNPTRKMLDHIAHEVGLLKRVVQVWFQNTRARERK [K39L],-0.324 ± 0.1
3,RLRTTITPEQLEILYQKYLLDSNPTRKMLDHIAHEVGLMKRVVQVWFQNTRARERK [K39M],0.13 ± 0.11
4,RLRTTITPEQLEILYQKYLLDSNPTRKMLDHIAHEVGLNKRVVQVWFQNTRARERK [K39N],-0.153 ± 0.14
5,RLRTTITPEQLEILYQKYLLDSNPTRKMLDHIAHEVGLPKRVVQVWFQNTRARERK [K39P],0.224 ± 0.12
6,RLRTTITPEQLEILYQKYLLDSNPTRKMLDHIAHEVGLQKRVVQVWFQNTRARERK [K39Q],0.108 ± 0.15
7,RLRTTITPEQLEILYQKYLLDSNPTRKMLDHIAHEVGLRKRVVQVWFQNTRARERK [K39R],-0.012 ± 0.074
8,RLRTTITPEQLEILYQKYLLDSNPTRKMLDHIAHEVGLTKRVVQVWFQNTRARERK [K39T],0.373 ± 0.11
9,RLRTTITPEQLEILYQKYLLDSNPTRKMLDHIAHEVGLVKRVVQVWFQNTRARERK [K39V],-0.01 ± 0.092
10,RLRTTITPEQLEILYQKYLLDSNPTRKMLDHIAHEVGLWKRVVQVWFQNTRARERK [K39W],-0.77 ± 0.11
11,RLRTTITPEQLEILYQKYLLDSNPTRKMLDHIAHEVGLYKRVVQVWFQNTRARERK [K39Y],-0.114 ± 0.22
12,RLRTTITPEQLEILYQKYLLDSNPTRKMLDHIAHEVGLKARVVQVWFQNTRARERK [K40A],0.144 ± 0.08
13,RLRTTITPEQLEILYQKYLLDSNPTRKMLDHIAHEVGLKCRVVQVWFQNTRARERK [K40C],-0.195 ± 0.14
14,RLRTTITPEQLEILYQKYLLDSNPTRKMLDHIAHEVGLKDRVVQVWFQNTRARERK [K40D],0.006 ± 0.16
15,RLRTTITPEQLEILYQKYLLDSNPTRKMLDHIAHEVGLKGRVVQVWFQNTRARERK [K40G],0.04 ± 0.079
16,RLRTTITPEQLEILYQKYLLDSNPTRKMLDHIAHEVGLKHRVVQVWFQNTRARERK [K40H],-0.049 ± 0.16
17,RLRTTITPEQLEILYQKYLLDSNPTRKMLDHIAHEVGLKIRVVQVWFQNTRARERK [K40I],0.093 ± 0.17
18,RLRTTITPEQLEILYQKYLLDSNPTRKMLDHIAHEVGLKLRVVQVWFQNTRARERK [K40L],0.283 ± 0.09
19,RLRTTITPEQLEILYQKYLLDSNPTRKMLDHIAHEVGLKMRVVQVWFQNTRARERK [K40M],0.192 ± 0.12
20,RLRTTITPEQLEILYQKYLLDSNPTRKMLDHIAHEVGLKNRVVQVWFQNTRARERK [K40N],0.238 ± 0.17
21,RLRTTITPEQLEILYQKYLLDSNPTRKMLDHIAHEVGLKPRVVQVWFQNTRARERK [K40P],0.258 ± 0.1
22,RLRTTITPEQLEILYQKYLLDSNPTRKMLDHIAHEVGLKRRVVQVWFQNTRARERK [K40R],-0.064 ± 0.082
23,RLRTTITPEQLEILYQKYLLDSNPTRKMLDHIAHEVGLKSRVVQVWFQNTRARERK [K40S],0.237 ± 0.092
